From patent US20210179689A1 (SHATTUCK LABS, published 2021) come the findings set out here.

Assay [1] addresses T1, human CD40 (human, UniProt P25942 21-193).
T1 construct: also called hCD40
Kind of assay: Octet biolayer interferometry; Loading Sample ID hCD40-his; Full R^2 0.9682. On the technique in general: In BLI a coated tip is dipped into the sample, and binding shifts an interference pattern.

The target in assay [2] is T2, murine CD40 (murine, UniProt P27512 20-193, limits assumed).
T2 construct: also called mCD40
T2 sequence (looked up): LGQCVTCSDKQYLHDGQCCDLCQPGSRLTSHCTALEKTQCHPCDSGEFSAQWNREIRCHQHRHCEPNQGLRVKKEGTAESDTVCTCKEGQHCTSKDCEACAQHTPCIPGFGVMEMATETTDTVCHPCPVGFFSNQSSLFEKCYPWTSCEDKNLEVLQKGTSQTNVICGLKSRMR
Put plainly: Octet biolayer interferometry; Loading Sample ID mCD40-his; Full R^2 0.7077.

For assay [3], the target named is T1, human CD40. Put plainly: Octet biolayer interferometry; Loading Sample ID hCD40-his; kdis(1/s); Full R^2 0.9682.
The target of assay [4] is T2, murine CD40. Kind of assay: Octet biolayer interferometry; Loading Sample ID mCD40-his; kdis(1/s); Full R^2 0.7077.
The target in assay [5] is recombinant mouse CD40-Fc protein (mouse) (UniProt P27512). Put plainly: ELISA: coat mCD40-Fc, detection anti-mCD40L and an HRP conjugate. For orientation: An ELISA detects its analyte on a solid surface through an enzyme-linked reagent.
The target of assay [6] is human galectin-9 (human) (UniProt O00182). Put plainly: Octet biolayer interferometry; Loading Sample ID hGal9; Full R^2 0.9934.
Sequence of human galectin-9 (human) (O00182 other isoform, or with tags, fused parts or gaps limits assumed): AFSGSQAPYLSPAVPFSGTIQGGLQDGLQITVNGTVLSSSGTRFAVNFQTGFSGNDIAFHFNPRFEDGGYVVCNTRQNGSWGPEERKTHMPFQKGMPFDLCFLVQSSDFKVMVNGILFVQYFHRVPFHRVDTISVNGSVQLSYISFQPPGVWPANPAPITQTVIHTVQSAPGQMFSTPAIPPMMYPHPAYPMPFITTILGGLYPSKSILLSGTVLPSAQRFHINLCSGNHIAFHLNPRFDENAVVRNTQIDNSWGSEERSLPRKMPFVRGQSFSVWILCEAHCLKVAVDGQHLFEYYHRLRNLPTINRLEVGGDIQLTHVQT
Assay [7] addresses mIgG Fc gamma. Put plainly: sandwich ELISA: coat mIgG Fc gamma, detection goat anti-mouse Fc (H+L) HRP.
The target of assay [8] is T1, human CD40. Put plainly: Octet biolayer interferometry; Loading Sample ID hCD40-his; Full R^2 0.3080.
Assay [9] concerns the target T1, human CD40. Kind of assay: Octet biolayer interferometry; Loading Sample ID hCD40-his; Full R^2 0.9393.
Assay [10] addresses T1, human CD40. Kind of assay: Octet biolayer interferometry; Loading Sample ID hCD40-his; Full R^2 0.9810.
The target in assay [11] is T2, murine CD40. Kind of assay: Octet biolayer interferometry; Loading Sample ID mCD40-his; Full R^2 0.7890.
The target in assay [12] is T2, murine CD40. Kind of assay: Octet biolayer interferometry; Loading Sample ID mCD40-his; Full R^2 0.9955.
Assay [13] addresses murine galectin-9 (murine) (UniProt O08573). Put plainly: Octet biolayer interferometry; Loading Sample ID mGal9; Full R^2 0.9866.
Assay [14] has the same target. Put plainly: Octet biolayer interferometry; Loading Sample ID mGal9; Full R^2 0.9973.
The target in assay [15] is human galectin-9 (human) (UniProt O00182). Put plainly: Octet biolayer interferometry; Loading Sample ID hGal9; kdis(1/s); Full R^2 0.9934.
Assay [16] addresses T1, human CD40. Kind of assay: Octet biolayer interferometry; Loading Sample ID hCD40-his; kdis(1/s); Full R^2 0.3080.
Assay [17] has as its target T1, human CD40. Put plainly: Octet biolayer interferometry; Loading Sample ID hCD40-his; kdis(1/s); Full R^2 0.9393.
Assay [18] concerns the target T1, human CD40. Put plainly: Octet biolayer interferometry; Loading Sample ID hCD40-his; kdis(1/s); Full R^2 0.9810.
Assay [19] deals with T2, murine CD40. Put plainly: Octet biolayer interferometry; Loading Sample ID mCD40-his; kdis(1/s); Full R^2 0.7890.
For assay [20], the target named is T2, murine CD40. Kind of assay: Octet biolayer interferometry; Loading Sample ID mCD40-his; kdis(1/s); Full R^2 0.9955.
In assay [21] the target is murine galectin-9 (murine) (UniProt O08573). Kind of assay: Octet biolayer interferometry; Loading Sample ID mGal9; kdis(1/s); Full R^2 0.9866.
Sequence of murine galectin-9 (murine) (O08573 other isoform, or with tags, fused parts or gaps limits assumed): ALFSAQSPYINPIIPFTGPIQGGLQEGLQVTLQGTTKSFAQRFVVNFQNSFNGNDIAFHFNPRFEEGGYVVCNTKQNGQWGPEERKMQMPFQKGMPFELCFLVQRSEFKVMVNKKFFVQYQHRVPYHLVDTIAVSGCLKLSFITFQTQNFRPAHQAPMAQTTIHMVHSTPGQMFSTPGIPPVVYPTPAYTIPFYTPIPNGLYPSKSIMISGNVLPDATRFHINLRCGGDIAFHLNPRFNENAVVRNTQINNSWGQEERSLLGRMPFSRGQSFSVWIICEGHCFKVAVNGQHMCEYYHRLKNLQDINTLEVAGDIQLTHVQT
Assay [22] has the same target. Put plainly: Octet biolayer interferometry; Loading Sample ID mGal9; kdis(1/s); Full R^2 0.9973.
In assay [23] the target is mIgG Fc gamma. Put plainly: sandwich ELISA: coat mIgG Fc gamma, detection goat anti-mouse Fc (H+L) HRP; standard: mouse whole IgG.
Assay [24] concerns the target T1, human CD40. Put plainly: Octet biolayer interferometry; Loading Sample ID hCD40-his; Full R^2 0.5111.
Assay [25] addresses T2, murine CD40. Kind of assay: Octet biolayer interferometry; Loading Sample ID mCD40-his; Full R^2 0.9077.
Assay [26] concerns the target T1, human CD40. Put plainly: Octet biolayer interferometry; Loading Sample ID hCD40-his; kdis(1/s); Full R^2 0.5111.
Assay [27] has as its target T2, murine CD40. Kind of assay: Octet biolayer interferometry; Loading Sample ID mCD40-his; kdis(1/s); Full R^2 0.9077.
Assay [28] concerns the target T2, murine CD40. Kind of assay: Octet biolayer interferometry; Loading Sample ID mCD40-his; KD and kdis cells blank; Full R^2 0.6015.

T1 sequence (P25942 21-193 limits assumed): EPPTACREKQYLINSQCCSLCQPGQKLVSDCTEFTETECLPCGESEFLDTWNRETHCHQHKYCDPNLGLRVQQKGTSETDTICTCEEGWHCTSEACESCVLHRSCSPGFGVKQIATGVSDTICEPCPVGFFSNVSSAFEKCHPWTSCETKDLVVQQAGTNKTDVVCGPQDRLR

In general, Kd refers to the equilibrium constant for the complex coming apart. Higher therefore signals lower affinity. What is called kon is a measure of how fast the partners come together. As usually defined, the koff is the first-order rate constant of dissociation. Higher therefore signals fast dissociation. As for hCD40L-Fc (Fc fusion), the figures for the Kd with human CD40 [1] and with murine CD40 [2] were 6.18 nM and 10.6 nM, respectively. Also, the figures for the kon with human CD40 [1] and in the assay with murine CD40 [2] were 120000 M⁻¹ s⁻¹ and 229000 M⁻¹ s⁻¹, respectively. The values for the koff in the assay with human CD40 [3] and with murine CD40 [4] were 0.000734 s⁻¹ and 0.00241 s⁻¹, respectively.

One may read the EC50 (read off the curve) as the concentration needed to bring the measured effect to its halfway point. With “mTIM-3-Fc-CD40L chimeric protein (from UniProt Q8VIM0 20-193; P27548 47-260) (Fc fusion)”, the EC50 (read off the curve) turned out to be 10 nM in [5] and 4 nM in the assay with mIgG Fc gamma [7]. The Kd came to 69 nM with human galectin-9 (human) [6]; 9.37 nM with human CD40 [8]; 9.46 nM with human CD40 [9]; 3 nM with human CD40 [10]; 29.9 nM with murine CD40 [11]; 8.92 nM with murine CD40 [12]. In addition, the Kd in assay [13] was found to be 7.07 nM; in assay [14] it was 16.7 nM. Also, the kon was found to be 59400 M⁻¹ s⁻¹ with human CD40 [9]; 30600 M⁻¹ s⁻¹ with human CD40 [10]; 79200 M⁻¹ s⁻¹ in the assay with murine CD40 [11]; 33700 M⁻¹ s⁻¹ in the assay with murine CD40 [12]; 114000 M⁻¹ s⁻¹ in assay [13]; 58500 M⁻¹ s⁻¹ in [14]. The koff in the assay with human galectin-9 (human) [15] was determined as 0.00108 s⁻¹; with human CD40 [16] it was 0.00103 s⁻¹; with human CD40 [17], 0.000733 s⁻¹; in the assay with human CD40 [18], 0.000103 s⁻¹; with murine CD40 [19], 0.00286 s⁻¹; with murine CD40 [20], 0.000295 s⁻¹. Further, the figures for the dissociation rate constant (koff) in assay [21] and in assay [22] were 0.000803 s⁻¹ and 0.00098 s⁻¹, respectively.

Consider mouse IgG (antibody), for which the EC50 (read off the curve) with mIgG Fc gamma [23] amounted to 2 nM.

B1: mCD40L-Fc fusion protein (Fc fusion, murine, UniProt P27548 112-260, looked up)
chain: MQRGDEDPQIAAHVVSEANSNAASVLQWAKKGYYTMKSNLVMLENGKQLTVKREGLYYVYTQVTFCSNREPSSQRPFIVGLWLKPSSGSERILLKAANTHSSSQLCEQQSVHLGGVFELQAGASVFVNVTEASQVIHRVGFSSFGLLKL
notes: also called recombinant mCD40L-Fc protein; not shown: Fc part
Consider B1, for which the results for the dissociation constant (Kd) with human CD40 [24] and with murine CD40 [25] were 4.8 nM and 14.1 nM, respectively. Besides, the on-rate constant (kon) was 220000 M⁻¹ s⁻¹ in the assay with human CD40 [24], 81500 M⁻¹ s⁻¹ with murine CD40 [25] and 118000 M⁻¹ s⁻¹ with murine CD40 [28]. The results for the off-rate (koff) with human CD40 [26] and with murine CD40 [27] were 0.00115 s⁻¹ and 0.00114 s⁻¹, respectively.
